Consider one molecule from paper PMC3355305, “Localized Dimerization and Nucleoid Binding Drive Gradient Formation by the Bacterial Cell Division Inhibitor MipZ” (Molecular Cell, 2012).

Test [1] has as its system MipZ or its mutant derivatives (immobilized, homotypic). The test can be described thus: SPR analysis of MipZ self-association / dimer dissociation. The class given is binding, Caulobacter crescentus. How it is done: Figure 2 Biochemical Analysis of MipZ Dimerization (A) ATPase cycle of MipZ. See the main text for details. (B and C) SPR analysis of MipZ self-association. […] After the binding phase, the chip was washed with buffer lacking protein and nucleotides to follow the dissociation reaction. The rate constants (koff) determined for the dissociation of the MipZ and MipZ-D42A complexes are 0.83 min^−1 and 0.067 min^−1, respectively. (D) Nucleotide-dependent dimerization of MipZ. MipZ-D42A was incubated with ADP (blue), ATP (orange) or ATPγS (red) and subjected to size exclusion chromatography. (E) ATPase activity of MipZ and its mutant derivatives. The graph gives the average turnover rate (kapp, average turnovers/min per molecule of MipZ) of the different MipZ derivatives (6 μM). Data represent the average of at least three independent experiments (±SD). Note that consistent with a critical role of the metal cofactor in dimerization and catalysis Mg^2+ was required for ATP turnover (Figure S2H). (F) Concentration dependence of the MipZ ATPase activity. The average turnover rate of MipZ (kapp) was determined at the indicated protein concentrations. […]
Background: SPR reads the build-up and loss of mass on a sensor chip optically.

The next test addresses ParB. On the set-up: method as in Thanbichler and Shapiro, 2006. The settings on record: apo-MipZ; ref Thanbichler and Shapiro, 2006; cited from earlier work.

B1: MipZ: P loop ATPase and cell division inhibitor of Caulobacter crescentus; hexahistidine-tagged in vitro, YFP fusion in FRAP (protein)
chain: MAETRVIVVGNEKGGAGKSTIAVHLVTALLYGGAKVAVIDLDLRQRTSARFFENRRAWLDNKKIELPEPLALNLSDNDVALAERPEEEQVAGFEAAFARAMAECDFILIDTPGGDSAITRMAHGRADLVVTPMNDSFVDFDMLGTVDPVTLELTKPSLYSLTVWEGRKQRALSGQRQAMDWVVLRNRLATTEARNRKRLEDRLNALAKRVGFRIGPGLRDRVIYRELFPFGLTIADLSPQVRPVPVSLQHLAARQELRALMHSLGLSAYSGETMLAAQ
modifications: left off: His6, end not stated, state not stated
notes: hexahistidine-tagged in vitro, YFP fusion in FRAP
Consider B1, for which the “dissociation rate constant (koff) of the dimeric complex” value in test [1] (in the presence of 1 mM ATPγS) was found to be 0.18 min⁻¹; in test [1] (in the presence of ATP, chip washed with buffer lacking protein and nucleotides) it was 0.83 min⁻¹. Besides, the dissociation constant (Kd) on ParB was about 2000 nM.

Usually Kd stands for the constant that tells how readily two partners part at equilibrium.
